Patent US20230348614A1 (VISTERRA, published 2023)
Positions count from the first letter of the chain named.

Key:
[1] = molecular target: T1, T188A (Homo sapiens, UniProt P18827); test: alanine scan: flow cytometry on HEK-293T cells expressing the mutant clone, 4320 Fab 0.50 ug/mL, normalised to WT CD138; Range %WT Binding 29; Normalized 4320 vs. BB4 59.8
T1 construct: clone of the alanine scanning library on HEK-293T cells; m17 with one substitution; also called CD138 T188A
T1 sequence (CD138 (SDC1), full length, point mutant, looked up): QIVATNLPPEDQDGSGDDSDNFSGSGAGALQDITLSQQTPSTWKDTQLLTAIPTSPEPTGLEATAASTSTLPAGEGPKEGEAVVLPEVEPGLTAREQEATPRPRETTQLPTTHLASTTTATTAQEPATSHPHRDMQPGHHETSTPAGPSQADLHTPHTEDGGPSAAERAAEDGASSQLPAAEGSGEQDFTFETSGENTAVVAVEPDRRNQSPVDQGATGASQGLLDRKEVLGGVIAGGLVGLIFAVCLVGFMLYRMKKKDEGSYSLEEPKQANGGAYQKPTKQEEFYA
Experimental: (§1) Serial dilutions of each MAb were tested for immunoreactivity against cells expressing target protein (WT) or vector alone. Validation of target expression and optimization of detection and binding of anti-CD138 antibodies both by flow cytometry was completed in replicate (N=4). The optimal screening concentration for each MAb was determined based on the raw signal values and signal-to-background calculations specifically optimized for each test article. Optimized parameters included the use of 10% goat serum as blocking reagent. Primary antibody staining was for 60 minutes at 25° C. Wash buffer include phosphate buffered saline (divalent metal ion free), pH 7.4. […] Secondary antibodies were diluted 1:400 and incubated for 30 minutes at 25° C.
(§2) Library screens of very-high-affinity mAbs can fail to yield critical residues for antibody binding due to deficiencies of such an assay to detect and differentiate critical vs. less critical binding based on affinity and quantification of cell binding. One common approach in the literature is the use of monovalent antibody derived fragments such as Fab usually weakens binding sufficiently to allow identification of critical residues for binding. […] Binding of each test Ab to each mutant clone in the alanine scanning library was determined, in duplicate, and likewise evaluated by flow cytometry.

[2] = molecular target: T2, T143A (Homo sapiens, UniProt P18827); test: alanine scan: flow cytometry on HEK-293T cells expressing the mutant clone, 4320 Fab 0.50 ug/mL, normalised to WT CD138; Range %WT Binding 6; Normalized 4320 vs. BB4 53.2
T2 construct: clone of the alanine scanning library on HEK-293T cells; m17 with one substitution; also called CD138 T143A
T2 sequence (CD138 (SDC1), full length, point mutant, looked up): T1 sequence (CD138 (SDC1), full length, point mutant, looked up) with T121A, A166T
Experimental: as §1, §2

Mean %WT Binding [1]: 57.4 %WT
Mean %WT Binding [2]: 30.8 %WT
B1: Fab fragment of mAb 4320 (Fab, V domains shown)
VH: QVQLVQSGAEVKKPGASVKVSCKASGYSFSSYYMHWVRQAPGQGLEWMGTIHPSDSTTNYNQKFQGRVTMTVDTSTRTAYMELSSLRSEDTAVYYCANFVYWGQGTTVTVSS
VL: DIVMTQTPLSLSVTPGQPASISCKSSKSLLYKDGKTYLNWFLQKPGQSPQLLIYVVSTRASGVPDRFSGSGSGTDFTLKISRVEAEDVGVYYCQQLVEYPYTFGQGTKLEIKR
modifications: N-terminal Q1 observed as pyroglutamic acid (PCA) in the 138-2-5 complex
notes: In the crystal structures heavy chain residues 1-213 were traced; also called Fab4320
